According to the Immune Epitope Database (IEDB):
One block for each sequence: values may come before it.

How the values were obtained:
[1] = target: HLA-B*18:01; assay: IEDB peptide-MHC binding, purified MHC/competitive/radioactivity; filed as Kd, often an IC50 or EC50 that approximates it; ≥ and ≤ were set here for values at or beyond the usual limits of such assays
[2] = target: HLA-B*40:01; assay: as above
[3] = target: HLA-B*40:02; assay: as above
[4] = target: HLA-B*44:02; assay: as above
[5] = target: HLA-B*44:03; assay: as above
[6] = target: HLA-B*45:01; assay: as above
[7] = target: HLA-A*03:01; assay: IEDB peptide-MHC binding, purified MHC/competitive/fluorescence; filed as Kd, often an IC50 or EC50 that approximates it; ≥ and ≤ were set here for values at or beyond the usual limits of such assays
[8] = target: HLA-B*15:01; assay: as above
[9] = target: HLA-B*07:02; assay: IEDB peptide-MHC binding, purified MHC/competitive/radioactivity; filed as Kd, often an IC50 or EC50 that approximates it; ≥ and ≤ were set here for values at or beyond the usual limits of such assays
[10] = target: HLA-B*35:01; assay: as above
[11] = target: HLA-B*51:01; assay: as above
[12] = target: HLA-B*53:01; assay: as above
[13] = target: HLA-B*54:01; assay: as above
[14] = target: HLA-A*02:01; assay: IEDB peptide-MHC binding, purified MHC/competitive/fluorescence; ≥ and ≤ were set here for values at or beyond the usual limits of such assays
[15] = target: HLA-A*11:01; assay: as above
[16] = target: HLA-A*24:02; assay: as above; conditions: source organism: Sudan ebolavirus
[17] = target: HLA-A*02:03; assay: IEDB peptide-MHC binding, purified MHC/direct/fluorescence; filed as Kd, often an IC50 or EC50 that approximates it; ≥ and ≤ were set here for values at or beyond the usual limits of such assays; conditions: source organism: Mycobacterium tuberculosis str. Haarlem
[18] = target: HLA-A*02:11; assay: as above
[19] = target: HLA-A*02:12; assay: as above
[20] = target: HLA-A*69:01; assay: as above; conditions: source organism: Mycobacterium tuberculosis
[21] = target: HLA-A*01:01; assay: as above; conditions: source organism: SARS-CoV1
[22] = target: HLA-A*23:01; assay: IEDB peptide-MHC binding, purified MHC/competitive/radioactivity; filed as Kd, often an IC50 or EC50 that approximates it; ≥ and ≤ were set here for values at or beyond the usual limits of such assays; conditions: source organism: SARS coronavirus Tor2
[23] = target: HLA-A*24:02; assay: as above; conditions: source organism: SARS coronavirus Tor2
[24] = target: HLA-A*26:01; assay: as above; conditions: source organism: SARS coronavirus Tor2
[25] = target: HLA-A*29:02; assay: as above; conditions: source organism: SARS coronavirus Tor2
[26] = target: HLA-A*30:02; assay: as above; conditions: source organism: SARS coronavirus Tor2
[27] = target: HLA-A*03:01; assay: IEDB peptide-MHC binding, purified MHC/direct/fluorescence; filed as Kd, often an IC50 or EC50 that approximates it; ≥ and ≤ were set here for values at or beyond the usual limits of such assays; conditions: source organism: Choclo virus
[28] = target: HLA-B*58:01; assay: as above; conditions: source organism: Orthohantavirus andesense
[29] = target: HLA-A*26:01; assay: IEDB peptide-MHC binding, purified MHC/competitive/fluorescence; filed as Kd, often an IC50 or EC50 that approximates it; ≥ and ≤ were set here for values at or beyond the usual limits of such assays; conditions: source organism: Choclo virus
[30] = target: HLA-B*15:17; assay: as above; conditions: source organism: Choclo virus
[31] = target: HLA-B*18:01; assay: as above; conditions: source organism: Choclo virus
[32] = target: HLA-B*27:03; assay: as above; conditions: source organism: Choclo virus
[33] = target: HLA-B*39:01; assay: as above; conditions: source organism: Choclo virus
[34] = target: HLA-B*46:01; assay: as above; conditions: source organism: Choclo virus
[35] = target: HLA-B*51:01; assay: as above; conditions: source organism: Choclo virus
[36] = target: HLA-B*57:01; assay: as above; conditions: source organism: Choclo virus
[37] = source organism: Mammarenavirus machupoense
[38] = source organism: Mammarenavirus choriomeningitidis
[39] = source organism: Yersinia pestis Antiqua
[40] = source organism: SARS coronavirus Tor2
[41] = source organism: Vaccinia virus WR
[42] = source organism: Sudan ebolavirus
[43] = source organism: Mammarenavirus lassaense
[44] = source organism: Triticum aestivum
[45] = source organism: Zaire ebolavirus
[46] = source organism: Mycobacterium tuberculosis str. Haarlem
[47] = source organism: Mammarenavirus whitewaterense

Sequence: ADMSKLLNL
Kd [1, 37]: ≥ 77.5 µM | Kd [2, 37]: 6.25 µM | Kd [3, 37]: 0.339 µM | Kd [4, 37]: 5.44 µM | Kd [5, 37]: ≥ 51.4 µM | Kd [6, 37]: ≥ 77.7 µM

Sequence: ADYLSCSHF
Kd [1, 38]: ≥ 77.5 µM | Kd [2, 38]: ≥ 47 µM | Kd [3, 38]: 0.254 µM | Kd [4, 38]: 0.319 µM | Kd [5, 38]: 2.74 µM | Kd [6, 38]: 17.7 µM

Sequence: AMLDRILHH
Kd [7, 39]: 0.0095 µM | Kd [8, 39]: 6.16 µM

Sequence: APAICHEGKA
Kd [9, 40]: 2.01 µM | Kd [10, 40]: ≥ 53.5 µM | Kd [11, 40]: ≥ 43 µM | Kd [12, 40]: 17.3 µM | Kd [13, 40]: 1.47 µM

Sequence: CLRIPMTDK
Kd ([7]; source organism: Bacillus thuringiensis str. Al Hakam): 0.0529 µM

Sequence: DPDHYKDYA
Kd [9, 41]: 14.8 µM | Kd [10, 41]: ≥ 77.4 µM | Kd [11, 41]: ≥ 22.5 µM | Kd [12, 41]: ≥ 75.5 µM | Kd [13, 41]: 7.01 µM

Sequence: DPGNPNCLEW
Kd [9, 41]: ≥ 69.6 µM | Kd [10, 41]: ≥ 56.5 µM | Kd [11, 41]: ≥ 69.6 µM | Kd [12, 41]: 0.00664 µM | Kd [13, 41]: ≥ 69.9 µM

Sequence: EPSGNNYHIL
Kd [9, 41]: 1.67 µM | Kd [10, 41]: 8.08 µM | Kd [11, 41]: ≥ 69.6 µM | Kd [12, 41]: 2.96 µM | Kd [13, 41]: 15.5 µM

Sequence: EWAFWENKK
IC50 [14, 42]: ≥ 183 µM | IC50 [15, 42]: 10.8 µM | IC50 [16]: 15.3 µM

Sequence: FPAQPGLTSA
Kd [9, 43]: 0.0496 µM | Kd [10, 43]: 0.051 µM | Kd [11, 43]: ≥ 32.3 µM | Kd [12, 43]: 2.91 µM | Kd [13, 43]: 0.00639 µM

Kd [9, 44]: 1.03 µM | Kd [10, 44]: 0.735 µM | Kd [11, 44]: 0.00353 µM | Kd [12, 44]: 0.323 µM | Kd [13, 44]: 4.33 µM
Sequence: FPSQQPYL

Sequence: GEWAFWETK
IC50 [15, 45]: 58 µM

Sequence: HGEYAPFAR
IC50 [15, 45]: 61.7 µM

Sequence: IPTNFSISI
Kd [9, 40]: 0.0641 µM | Kd [10, 40]: 0.0312 µM | Kd [11, 40]: 0.0571 µM | Kd [12, 40]: 0.0107 µM | Kd [13, 40]: 0.0499 µM

Sequence: IPYSRVNHA
Kd [9, 41]: 0.00663 µM | Kd [10, 41]: 0.0572 µM | Kd [11, 41]: 0.0232 µM | Kd [12, 41]: 0.177 µM | Kd [13, 41]: 0.000133 µM

Sequence: KPFNNILNLI
Kd [9, 41]: 1.14 µM | Kd [10, 41]: ≥ 69.9 µM | Kd [11, 41]: ≥ 10 µM | Kd [12, 41]: ≥ 69.9 µM | Kd [13, 41]: ≥ 69.9 µM

Sequence: LLYDGSFAV
Kd [17]: ≤ 0.001 µM | Kd [18, 46]: ≤ 0.001 µM | Kd [19, 46]: 0.002 µM | Kd [20]: 0.0043 µM

Sequence: LPMIIGEPII
Kd [9, 41]: 0.00912 µM | Kd [10, 41]: 0.75 µM | Kd [11, 41]: 0.456 µM | Kd [12, 41]: 0.0333 µM | Kd [13, 41]: 0.0311 µM

Sequence: LPPFTQHLL
Kd [9, 41]: 0.401 µM | Kd [10, 41]: 0.24 µM | Kd [11, 41]: 0.0186 µM | Kd [12, 41]: 0.0913 µM | Kd [13, 41]: 3.03 µM

Sequence: NPTNISKCF
Kd [9, 47]: 8.66 µM | Kd [10, 47]: 0.199 µM | Kd [11, 47]: 5.74 µM | Kd [12, 47]: 0.0777 µM | Kd [13, 47]: 3.47 µM

Sequence: PPLISILMIF
Kd [9, 41]: 0.27 µM | Kd [10, 41]: 0.761 µM | Kd [11, 41]: 2.02 µM | Kd [12, 41]: 0.497 µM | Kd [13, 41]: 3.12 µM

Sequence: PVDEYITTY
Kd [21]: 0.044 µM | Kd ([18]; source organism: SARS-CoV1): ≥ 20 µM | Kd [22]: ≥ 77.8 µM | Kd [23]: ≥ 77.6 µM | Kd [24]: 10.8 µM | Kd [25]: 0.544 µM | Kd [26]: 1.48 µM

Sequence: RCYPGYTLK
Kd ([7]; source organism: Giardia lamblia ATCC 50803): 0.0623 µM

Sequence: SPLPSLEYGA
Kd [9, 41]: 1.64 µM | Kd [10, 41]: 6 µM | Kd [11, 41]: ≥ 69.6 µM | Kd [12, 41]: 12.4 µM | Kd [13, 41]: 0.000204 µM

Sequence: SPTEMVDVSM
Kd [9, 41]: 0.122 µM | Kd [10, 41]: 0.0372 µM | Kd [11, 41]: ≥ 69.6 µM | Kd [12, 41]: 1.94 µM | Kd [13, 41]: ≥ 42.7 µM

Sequence: TPLHKYCVNL
Kd [9, 41]: 0.0113 µM | Kd [10, 41]: 7.36 µM | Kd [11, 41]: ≥ 37.1 µM | Kd [12, 41]: 0.891 µM | Kd [13, 41]: 4.86 µM

Sequence: TPVYKLDIS
IC50 [14, 45]: ≥ 170 µM | IC50 [15, 45]: 65.8 µM

Sequence: VLRRGALAH
Kd ([7]; source organism: Vibrio cholerae 2740-80): 0.014 µM

Sequence: VLTGGTGVG
IC50 ([15]; source organism: Variola virus): ≥ 80.6 µM

Sequence: VMGVIGFGF
Kd ([19]; source organism: Choclo virus): ≥ 20 µM | Kd [27]: ≥ 20 µM | Kd [28]: 2.19 µM | Kd [29]: ≥ 20 µM | Kd ([8]; source organism: Choclo virus): ≥ 20 µM | Kd [30]: ≥ 20 µM | Kd [31]: ≥ 20 µM | Kd [32]: ≥ 20 µM | Kd [33]: ≥ 20 µM | Kd [34]: ≥ 20 µM | Kd [35]: ≥ 20 µM | Kd [36]: ≥ 20 µM

Sequence: VVAFLILPQ
IC50 [14, 45]: ≥ 1420 µM | IC50 [15, 45]: ≥ 1240 µM

Sequence: YMFESKRMK
Kd ([7]; source organism: Influenza A virus (A/swine/Finistere/127/99(H3N2))): 0.0194 µM

Sequence: YPNSSDLDM
Kd [9, 43]: 0.233 µM | Kd [10, 43]: 0.00823 µM | Kd [11, 43]: 0.78 µM | Kd [12, 43]: 0.0141 µM | Kd [13, 43]: ≥ 53.9 µM
